Experiments:
SHP2-C SH2 = test: SH2 binding enrichment of the phosphorylated peptide, bacterial display (enrichment ratio); higher = better substrate or ligand; peptides without Tyr show the background
Grb2 SH2 = Grb2 SH2 (UniProt P62993); test: as above
c-Src SH2 = test: as above
EPHB2 = EPHB2 (UniProt P29323); test: phosphorylation enrichment, bacterial display (enrichment ratio); higher = better substrate or ligand; peptides without Tyr show the background
AncSZ = test: as above
Fyn = Fyn (UniProt P06241); test: as above
Hck = Hck (UniProt P08631); test: as above
c-Abl (mouse) = test: as above
Fer (mouse) = test: as above
MERTK = MERTK (UniProt Q12866); test: as above
FGFR1 = FGFR1 (UniProt P11362); test: as above
EPHB1 = EPHB1 (UniProt P54762); test: as above
FGFR3 = FGFR3 (UniProt P22607); test: as above
Jak2 = Jak2 (UniProt O60674); test: as above
c-Src = test: as above
Fes = Fes (UniProt P07332); test: as above
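For SH2 binding enrichment of the phosphorylated peptide, bacterial display in this document: peptide library displayed on the E. coli surface as eCPX fusions, selected cells deep-sequenced, score is each peptide's frequency after selection divided by its frequency in the input.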
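For phosphorylation enrichment, bacterial display in this document: 11-residue human phosphosite peptides and single-mutation variants displayed on the E. coli surface, counted by deep sequencing, each peptide's frequency after selection divided by its frequency in the unselected input library; frequency after pTyr selection over input frequency; kinase dosed for 20-30% of maximal phosphorylation in three min.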

Chain of EPHB2 (P29323 whole entry, looked up): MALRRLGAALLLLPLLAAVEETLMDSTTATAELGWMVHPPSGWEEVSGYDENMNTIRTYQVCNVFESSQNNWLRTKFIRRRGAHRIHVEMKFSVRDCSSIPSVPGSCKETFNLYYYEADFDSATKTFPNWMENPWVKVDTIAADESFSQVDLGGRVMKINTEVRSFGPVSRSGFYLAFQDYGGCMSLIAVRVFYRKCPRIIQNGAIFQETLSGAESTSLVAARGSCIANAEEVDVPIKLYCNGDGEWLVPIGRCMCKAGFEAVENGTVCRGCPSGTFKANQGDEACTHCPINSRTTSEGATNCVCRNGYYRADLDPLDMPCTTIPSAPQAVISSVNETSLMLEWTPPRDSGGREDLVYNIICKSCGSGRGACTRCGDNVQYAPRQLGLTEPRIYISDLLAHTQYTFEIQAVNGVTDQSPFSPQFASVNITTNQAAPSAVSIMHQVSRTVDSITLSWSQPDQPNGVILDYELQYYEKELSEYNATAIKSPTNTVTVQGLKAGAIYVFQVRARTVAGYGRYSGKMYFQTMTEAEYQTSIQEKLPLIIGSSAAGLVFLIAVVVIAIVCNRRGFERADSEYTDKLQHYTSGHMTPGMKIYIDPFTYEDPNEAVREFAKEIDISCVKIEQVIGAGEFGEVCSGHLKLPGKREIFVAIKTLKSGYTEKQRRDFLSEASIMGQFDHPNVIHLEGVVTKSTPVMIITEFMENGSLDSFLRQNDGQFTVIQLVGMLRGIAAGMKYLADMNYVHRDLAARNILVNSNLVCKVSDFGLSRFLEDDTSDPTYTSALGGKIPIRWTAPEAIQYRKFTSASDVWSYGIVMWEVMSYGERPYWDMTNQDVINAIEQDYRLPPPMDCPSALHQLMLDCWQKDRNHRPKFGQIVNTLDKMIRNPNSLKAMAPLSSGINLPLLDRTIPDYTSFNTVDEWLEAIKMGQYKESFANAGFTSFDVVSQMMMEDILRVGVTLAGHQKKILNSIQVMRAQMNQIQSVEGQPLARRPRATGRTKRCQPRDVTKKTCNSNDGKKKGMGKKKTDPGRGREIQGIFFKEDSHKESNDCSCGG
Chain of FGFR1 (P11362 whole entry, looked up): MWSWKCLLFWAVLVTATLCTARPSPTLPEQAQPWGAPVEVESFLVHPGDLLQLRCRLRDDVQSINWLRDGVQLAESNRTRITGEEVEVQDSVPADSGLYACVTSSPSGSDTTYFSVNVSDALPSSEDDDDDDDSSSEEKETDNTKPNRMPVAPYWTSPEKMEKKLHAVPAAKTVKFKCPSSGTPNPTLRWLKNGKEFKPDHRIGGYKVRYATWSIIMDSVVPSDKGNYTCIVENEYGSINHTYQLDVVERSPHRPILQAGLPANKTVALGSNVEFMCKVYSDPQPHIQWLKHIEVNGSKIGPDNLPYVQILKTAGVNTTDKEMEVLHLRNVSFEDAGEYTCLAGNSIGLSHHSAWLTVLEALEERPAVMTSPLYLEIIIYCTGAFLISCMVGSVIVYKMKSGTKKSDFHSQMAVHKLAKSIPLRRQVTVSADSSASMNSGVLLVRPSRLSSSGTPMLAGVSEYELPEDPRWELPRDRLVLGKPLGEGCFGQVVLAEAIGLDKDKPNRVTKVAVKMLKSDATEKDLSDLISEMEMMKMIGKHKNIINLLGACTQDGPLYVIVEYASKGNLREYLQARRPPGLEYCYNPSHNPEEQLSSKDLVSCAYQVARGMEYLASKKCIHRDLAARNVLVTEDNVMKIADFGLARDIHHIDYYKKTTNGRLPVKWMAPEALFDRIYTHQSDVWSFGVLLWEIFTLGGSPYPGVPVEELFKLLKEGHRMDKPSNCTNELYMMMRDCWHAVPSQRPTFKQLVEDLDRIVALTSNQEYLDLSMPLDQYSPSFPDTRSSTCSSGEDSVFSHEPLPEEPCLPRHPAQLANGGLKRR
Chain of Fyn (P06241 whole entry, looked up): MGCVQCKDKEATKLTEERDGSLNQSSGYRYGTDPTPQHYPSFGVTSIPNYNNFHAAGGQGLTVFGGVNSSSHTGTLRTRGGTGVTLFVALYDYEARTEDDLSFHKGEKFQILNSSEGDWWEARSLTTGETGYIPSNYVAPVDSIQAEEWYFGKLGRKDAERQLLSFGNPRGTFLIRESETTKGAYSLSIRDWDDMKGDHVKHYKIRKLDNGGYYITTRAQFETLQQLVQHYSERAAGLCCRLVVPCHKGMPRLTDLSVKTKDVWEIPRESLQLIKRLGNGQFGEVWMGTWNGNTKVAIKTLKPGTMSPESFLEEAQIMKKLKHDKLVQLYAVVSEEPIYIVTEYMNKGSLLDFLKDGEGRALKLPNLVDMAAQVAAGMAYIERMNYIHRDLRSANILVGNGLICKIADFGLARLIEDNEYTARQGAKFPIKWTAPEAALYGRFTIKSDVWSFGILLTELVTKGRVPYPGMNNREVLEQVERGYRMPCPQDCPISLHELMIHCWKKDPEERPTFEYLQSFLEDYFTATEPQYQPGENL
Chain of Hck (P08631 whole entry, looked up): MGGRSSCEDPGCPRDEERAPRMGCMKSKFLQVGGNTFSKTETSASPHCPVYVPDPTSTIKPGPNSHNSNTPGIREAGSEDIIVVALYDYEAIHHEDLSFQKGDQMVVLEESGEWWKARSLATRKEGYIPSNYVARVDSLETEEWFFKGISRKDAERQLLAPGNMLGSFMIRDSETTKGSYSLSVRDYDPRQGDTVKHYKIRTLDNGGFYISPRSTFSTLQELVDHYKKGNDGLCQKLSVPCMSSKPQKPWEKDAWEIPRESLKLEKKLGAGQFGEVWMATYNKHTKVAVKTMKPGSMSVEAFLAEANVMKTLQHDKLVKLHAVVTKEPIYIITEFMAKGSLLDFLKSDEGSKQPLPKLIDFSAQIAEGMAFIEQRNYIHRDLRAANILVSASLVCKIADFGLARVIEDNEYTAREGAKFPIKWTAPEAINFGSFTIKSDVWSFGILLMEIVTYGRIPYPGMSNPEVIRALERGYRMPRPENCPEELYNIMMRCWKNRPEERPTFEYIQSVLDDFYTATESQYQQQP
Chain of EPHB1 (P54762 whole entry, looked up): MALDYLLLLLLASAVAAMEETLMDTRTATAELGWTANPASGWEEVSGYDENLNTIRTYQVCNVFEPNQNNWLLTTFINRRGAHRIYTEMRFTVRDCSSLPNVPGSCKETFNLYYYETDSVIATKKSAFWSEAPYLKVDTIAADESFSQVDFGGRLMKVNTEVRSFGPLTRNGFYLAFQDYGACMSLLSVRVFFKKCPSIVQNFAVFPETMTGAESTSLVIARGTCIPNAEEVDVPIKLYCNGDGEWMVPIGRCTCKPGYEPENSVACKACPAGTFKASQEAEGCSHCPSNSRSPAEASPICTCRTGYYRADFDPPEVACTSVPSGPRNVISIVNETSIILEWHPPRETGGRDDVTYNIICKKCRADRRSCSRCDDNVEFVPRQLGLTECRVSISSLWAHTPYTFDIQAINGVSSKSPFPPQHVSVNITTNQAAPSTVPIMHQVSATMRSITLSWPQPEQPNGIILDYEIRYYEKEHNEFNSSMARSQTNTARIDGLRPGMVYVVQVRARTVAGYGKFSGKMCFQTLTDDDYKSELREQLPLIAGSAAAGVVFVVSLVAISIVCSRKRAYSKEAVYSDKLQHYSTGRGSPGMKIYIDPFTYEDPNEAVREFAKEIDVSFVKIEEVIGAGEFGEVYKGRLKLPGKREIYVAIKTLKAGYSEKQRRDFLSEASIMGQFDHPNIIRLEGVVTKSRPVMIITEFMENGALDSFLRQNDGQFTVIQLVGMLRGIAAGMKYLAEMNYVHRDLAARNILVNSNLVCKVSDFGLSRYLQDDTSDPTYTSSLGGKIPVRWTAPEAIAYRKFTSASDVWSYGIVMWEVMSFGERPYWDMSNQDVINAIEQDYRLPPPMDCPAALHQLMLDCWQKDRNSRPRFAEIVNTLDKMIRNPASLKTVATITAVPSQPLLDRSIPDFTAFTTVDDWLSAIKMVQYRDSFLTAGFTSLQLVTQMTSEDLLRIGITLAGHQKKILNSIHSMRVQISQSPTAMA
Chain of MERTK (Q12866 whole entry, looked up): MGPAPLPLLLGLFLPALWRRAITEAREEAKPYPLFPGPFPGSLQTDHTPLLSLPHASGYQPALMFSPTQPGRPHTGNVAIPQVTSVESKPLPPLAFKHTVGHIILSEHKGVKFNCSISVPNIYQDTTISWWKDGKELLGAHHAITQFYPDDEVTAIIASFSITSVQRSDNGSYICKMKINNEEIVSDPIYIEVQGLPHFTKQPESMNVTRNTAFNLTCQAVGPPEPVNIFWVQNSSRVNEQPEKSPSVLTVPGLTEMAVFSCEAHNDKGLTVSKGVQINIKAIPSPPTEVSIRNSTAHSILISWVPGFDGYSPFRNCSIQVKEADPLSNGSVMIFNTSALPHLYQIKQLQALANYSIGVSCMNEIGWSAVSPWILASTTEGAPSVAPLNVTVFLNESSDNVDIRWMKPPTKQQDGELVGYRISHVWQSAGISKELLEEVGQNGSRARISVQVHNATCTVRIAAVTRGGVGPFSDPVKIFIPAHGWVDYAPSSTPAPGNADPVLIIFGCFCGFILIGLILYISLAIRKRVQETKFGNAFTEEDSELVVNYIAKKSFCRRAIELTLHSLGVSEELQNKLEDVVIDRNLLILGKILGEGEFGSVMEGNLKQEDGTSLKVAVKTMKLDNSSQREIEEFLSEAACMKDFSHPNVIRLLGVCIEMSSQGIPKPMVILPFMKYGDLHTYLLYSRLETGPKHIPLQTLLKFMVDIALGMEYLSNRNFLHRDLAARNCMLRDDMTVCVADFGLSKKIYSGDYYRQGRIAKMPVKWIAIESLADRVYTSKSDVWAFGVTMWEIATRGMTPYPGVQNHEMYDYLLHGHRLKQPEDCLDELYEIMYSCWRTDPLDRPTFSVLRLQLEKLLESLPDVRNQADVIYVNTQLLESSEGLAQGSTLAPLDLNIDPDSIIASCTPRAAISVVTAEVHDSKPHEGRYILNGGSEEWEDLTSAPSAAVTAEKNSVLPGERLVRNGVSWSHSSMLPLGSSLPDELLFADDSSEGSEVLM

| Sequence | SH2 binding enrichment (SHP2-C SH2) | SH2 binding enrichment (Grb2 SH2) | SH2 binding enrichment (c-Src SH2) | phosphorylation enrichment (EPHB2) | phosphorylation enrichment (AncSZ) | phosphorylation enrichment (Fyn) | phosphorylation enrichment (Hck) | phosphorylation enrichment (c-Abl (mouse)) | phosphorylation enrichment (Fer (mouse)) | phosphorylation enrichment (MERTK) | phosphorylation enrichment (FGFR1) | phosphorylation enrichment (EPHB1) | phosphorylation enrichment (FGFR3) | phosphorylation enrichment (Jak2) | phosphorylation enrichment (c-Src) | phosphorylation enrichment (Fes) |
| --- | --- | --- | --- | --- | --- | --- | --- | --- | --- | --- | --- | --- | --- | --- | --- | --- |
| PNAYIYVVQLP [L1CAM_Y420_A415P] | 1.14 | 1.36 | 0.862 | 1.35 | 1.53 | 0.941 | 0.832 | 1.18 | 0.47 | 2.25 | 1.6 | 1.08 | 1.61 | 1.75 | 1.31 | 1.76 |
| NCLRQYVAGRF [CRB1_Y711_E710Q] | 0.571 | 0.709 | 0.299 | 0.492 | 0.993 | 0.477 | 0.337 | 0.576 | 0.367 | 0.456 | 0.382 | 0.39 | 0.467 | 0.62 | 0.444 | 0.646 |
| HFEDGYPGGSD [CTNND1_Y221_YF] | 0.731 | 0.851 | 0.397 | 0.675 | 1.15 | 0.74 | 0.756 | 0.485 | 0.5 | 0.598 | 0.668 | 0.656 | 0.806 | 0.955 | 0.514 | 1.45 |
| HTKKNYGNSSV [HDX_Y197_A193T] | 0.647 | 0.907 | 0.532 | 0.403 | 0.443 | 0.337 | 0.462 | 0.331 | 0.393 | 0.442 | 0.252 | 0.181 | 0.515 | 0.433 | 0.472 | 0.656 |
| DKANRYFSPNF [PTEN_Y336] | 1.16 | 1.05 | 0.587 | 0.301 | 0.583 | 0.323 | 0.402 | 0.438 | 0.375 | 0.374 | 0.397 | 0.296 | 0.461 | 0.488 | 0.362 | 0.521 |
| ESKKHYGFSLF [ANXA3_Y295_F291S_YF] | 0.717 | 1.03 | 0.644 | 0.541 | 1.01 | 0.513 | 0.528 | 0.676 | 0.526 | 0.526 | 0.572 | 0.574 | 0.678 | 0.93 | 0.453 | 1.03 |
| TSPKSCPSQKH [CAP2_Y316_Y316C] | 0.967 | 0.971 | 0.759 | 0.361 | 0.546 | 0.461 | 0.472 | 0.688 | 0.385 | 0.476 | 0.432 | 0.385 | 0.521 | 0.73 | 0.415 | 0.619 |
| GEDLSYGDLPP [IRS1_Y151_V154L] | 0.788 | 0.868 | 0.622 | 0.664 | 1.3 | 0.571 | 0.564 | 0.899 | 0.794 | 0.543 | 0.597 | 0.661 | 0.786 | 1.22 | 0.582 | 1.34 |
